# Source: patent EP4778588A2, “ENZYMATICALLY CLEAVABLE LINKER AND LIGAND-ERIBULIN CONJUGATE CONTAINING SAME” (priority 2022, dated 2024)
# B1: Bemarituzumab MC-VAGGFG-PAB-Eribulin: Bemarituzumab conjugated with the linker-toxin MC-VAGGFG-PAB-Eribulin (conjugate, chains of the INN, looked up)
# VH: QVQLVQSGAEVKKPGSSVKVSCKASGYIFTTYNVHWVRQAPGQGLEWIGSIYPDNGDTSYNQNFKGRATITADKSTSTAYMELSSLRSEDTAVYYCARGDFAYWGQGTLVTVSS
# VL: DIQMTQSPSSLSASVGDRVTITCKASQGVSNDVAWYQQKPGKAPKLLIYSASYRYTGVPSRFSGSGSGTDFTFTISSLQPEDIATYYCQQHSTTPYTFGQGTKLEIK
# modifications: MC-VAGGFG-PAB-Eribulin
# Tested on: KATO III cell line (human gastric cancer cells)
# Assay: Cell viability test (same method as for Calu-6) in KATO III cells
# Format: cell-based
# Conditions: average DAR of 2 to 3, read-out: EC/IC50 values for cell viability
# Description: Human Calu-6 cells (manufacturer: Procell, product code: CL-327, human lung cancer cells) were resuscitated and seeded into a 96-well culture plate. The culture medium used was DMEM/F12 (manufacturer: Hyclone, product code: SH30023.01), supplemented with 10% FBS (manufacturer: Gibco, product code: 10099141). Each well contained 2,500 cells in 150 µl of medium. The plate was incubated at 37°C in a 5% CO2 incubator. Approximately 20 hours later, 50 µl of medium containing different antibody-drug conjugates were added to each well, setting the final drug concentrations at 0 to 100 nM across 12 dilution gradients (initial concentration: 100 nM; subsequent 5-fold serial dilutions across 10 gradients; last gradient containing no drug, and each sample was tested in duplicate wells). […] After a 2-minute reaction, fluorescence intensity was measured using a Tecan Spark instrument, following the reagent kit's recommended protocol. […] EC/IC50 values were calculated using four-parameter fitting.
# Further, following the above examples, antibody-drug conjugates (ADCs) of Trastuzumab and Bemarituzumab conjugated with the linker-toxin MC-VAGGFG-PAB-Eribulin were prepared for validation. […] Activity was measured using the SK-BR-3 cell line (human breast cancer cells) and KATO III cell line (human gastric cancer cells).
molecule,measurement,value
B1,IC50,0.097 nM
